The source of these data is a protein production outcome set (Wang et al. 2014).

A short description of the data set: label from the status in PepcDB records.
Turning to “MESITEWDLGSLRTYYSVEPSENFQEDEFLDFNLVPCLQTELWKAQTRIKELEAEKFKSEETIRCLIRNQRNEKEETTNPFVDYLKEKLSKEREEKKRVKAENSRLKKKILDMESSVNRLRRERDTMEKVCEELVTRIDELKVNTRRVWDETEEERQMLQMAEMWREERVRVKFMDAKLALQEKYEEMNLFVVELEKCLETAREVGGIEEKRLRHGEGLIKMAKSMEVVDSKIDFERFEFVSDEGNV”, the protein production result is recorded as “failed”.
“MITLKQALSLSQDELETLKNEIDAKVRASDLNAYIKAPSLNGASAKGVPILIKDNISVKGWEITCSSKILEGYVAPYHASVMENLHQNSMAGFGLSNMDEFAMGSTTESSCYGITKNPRDKNRVPGGSSGGSAAAVAGGLAVAALGSDTGGSIRQPASYCGCVGLKPTYGRVSRYGLIAYCSSFDQIGPITQNVEDASILFDAISGYDSKDSTSANLKPTQTFKNLNRDKRFKIAVLMDHIKDASNEVQLAYENTLKALKEMGHEIVEKKMLDSHYQISIYYIISMAEASSNLARFDGVRYGRRAQNIKDLKELYLKSRSEGFGDEVKRRIMLGNFVLSSGYYDAYYLKAQQMRLIIKEQYNKIFEEVDLIFTPVAPTSAHLFNYHASPLEMYLSDIYTIGANLSGLPALSLPVAKDPLGLPIGMQFIAKAFDEQSLLDVSYALEQELDLKLD”: the protein production result was “failed”.
In the case of “MAEVTGVRALTGAALDAALEDVARLRIAVFRAWPYLYDGDLDYERDYLQAYRNSDRAIVVGAFDGDRLIGASTGMPLADHADDFAAAFADSGLALDQVFYCAESVLLPDYRGHGVGHRFFDLREGHARALGFAKCAFCGVQRPADHPLKPDSYRPLDAFWRARGYEKLPGAVAHFSWKDLDQENETDKPLQFWIRDL” it was “failed”; in that of “MSKKQKPTGNTGRKNQIKGKYAERSRKNGFGKFCLILQVIMSAAFMGVLVLLDMLPLKYLALAALILFFLWCITFTTQAVRKKKGVTGKVYSILLIAVLAVGTYYIAKTNDMIAAITSGGSKVDKMVVAVLKDDPAETLEDASDYEFGVQFNTGAENMKAAVMDIQDQIGDISTTEYKSVQEQAEALISGEVDAIIYNQSYTELMENAVEGYNDQIRIIYKHEIETKFDFGGSAKDDSLTKKPFTVYISGIDTYGDDADDDRDSIRSDVNIIAVVNPTTHQILLITTPRDYYIPIPGISDGMNDKLTHAGTYGIDVSMETLGALYETDINYYVRLNFSSLIEIVDILGGVDVYSEYAFTTGWESGYEMEVQQGINHFDGKQALAFSRERHALEGGDNQRGKNQQAVITAMLKKVLSPTMLLKANSIINQVSQDVETNISQGQLNSLVKSQLKSGAKWTIQSVAASGTDGEDYCYSVPDMPLYVLYPDEEVVNSIVELANIVEEGGSLESGEALN”, “failed”.
In the case of “MSFLCVRTVSRFRSLSRALAPGFLLLHGNAVPKTAVFFRQQSSNTRLFSSYTAPSGVEENNSKSALKNKLPPGKEVSSKDAKEKITTSAIDLALNSVVKVFTVSSKPRLFQPWQITMQSESTGSGFVISGKKILTNAHVVANQTSVKVRKHGSTTKYKAKVQAVGHECDLAILEIDNDKFWEGMNPLELGDIPSMQDTVYVVGYPKGGDTISVSKGVVSRVGPIKYSHSGTELLAIQIDAAINNGNSGGPVIMGNKVAGVAFESLCYSDSIGYIIPTPVIRHFLNAIEESGEDVSFGSINLTYQKMDNDQLRKDFKMSDKMTGILINKINPLSDVHKVLKKDDIILAIDGVPIGNDSSVHFRKKERITFKHLVSMKKPCETALLKVLREGKEYEFNSSLKSVPPLVPKRQYDKSASYYIFGGLVFLPLTKPYIDSSCVSESALGKMPKKAGEQVVIISQILEDDINTGYSIFEDFQVKKVNGVQVHNLKHLYKLVEECCTETVRMDLEKDKVITLDYKSAKKVTSKILKSLKIPSAVSEDLQPKQQNKRSKVPPKSKEH” it was “failed”; in that of “LSANYAENLQAQQRSAQRLEHQAWLRTGQTQLAQQVLGQLTLPMLGENILRFFASYLGSVVGAVYVRDEHGRLVRVACYGLSTEEQAREQIESDHHGLLAQAVREGRLLRLEELPEDFYRLSSGLGSGLPRSALLMPATEDGQINGVIELGFLRPLQERDEELLERVGGNLGMSIESA”, “failed”; in that of “MILVPIDISDKEFTERIISHVESEARIDDAEVHFLTVIPSLPYYASLGMAYTAELPGMDELREGSETQLKEIAKKFSIPEDRMHFHVAEGSPKDKILALAKSLPADLVIIASHRPDITTYLLGSNAAAVVRHAECSVLVVR”, “not failed”.
For the sequence “WILASTTEGAPSVAPLNVTVFLNESSDNVDIRWMKPPTKQQDGELVGYRISHVWQSAGISKELLEEVGQNGSRARISVQVHNATCTVRIAAVTRGGVGPFSDPVKIFIPAH”, the protein production result is given as “not failed”.
As for “MSTYTARLGGRTHSFPSLAALLAAASPERSGDRLAGLAADSAEARVAARWALAEVPLARFLAEPVIPYEDDDVTRLIVDTHDARAFAPVAGLCVGEFREWLLSDAADAGSLAALAPGLTPEMVAAVSKLMGNADLVAVARKARVVTAFRSTIGLPGRLATRLQPNHPTDDPAGVAAALLDGLLLGSGDAVIGINPATDSPKAVRDLLELLDGVIRRYAIPTQSCVLCHVTTSIDLMERGAPVDLVFQSIAGTQAANASFGVTLGLLDEAYDAARGLGRGTAGQNALYFETGQGSALSANAHHGVDQQTVEARAYAVARRYDPLLVNTVVGFIGPEYLYDGRQILRAALEDHFCGKLLGLPMGLDICYTNHADADDDDIATMLTMLGVAGASFVICTPGGDDIMLNYQSASYHDALYLREVLGLRPAPEFEDWLSRIGLLDDAGAIRDVTGTAHPLTAIGRELAA”, the protein production entry is “failed”.
Regarding “MRRLLVALCLLTVVLGSTSALAQARNQLGPLCTTETTPADKMVDACTKIIALKVFKGEQLATVYFWRAVGWNKKGDYAKVITDATEAIRLQPSQAVYNLRGSAYYDKGDYDIAIADFDDALKLGPPSGIIFHNRGNAWRGKHDYTKAIADYDMSIKADPKSAFSFQNRGISKEALGDLDGALADINQAIRLDPTLPQPLINRTSIWRAKGDLDRAIADGSEAIRLAEKKPPANIMTPPNSVLISGYTHRALAYEAKGDYARARDDYKATLAIVASDAGSKANQATAKVRLSLVSDAAVPIPRDAPSPTTQPTAAPAPQQTGAASAPSPAPAVRGTRMALIIGNGAYAHVKALPNPPNDARAVAKSLRDIGFTVSEGVDLDRAAMQKMTRDFLRDAARAQVAVVYYAGHGVQVDGRNYLIPVDVELKPGTAMTEAMIDMDTIMAGLDDQVRTNILIFDACRNNPMAQQVASAAANRGIEGASGLAAPTSLGAGATLGAGTLIAFATAPGQVALDGDGANSPFSAALSRHIGTLGLEVQQMLTRVRAEVVSTTKNKQVPWSNSSLLGEVYLAEK”, the protein production result is reported as “failed”.
In the case of “MGACVCRMNPDNETMSVSSASISRPASAGIAMGAARKNRPLCHETIRWRSDVPLTEGQLRSKRDEFWDTAPAFDGRKEIWDALRAATTAAEGLDFQMAQAILDGANVSVPNGYLTECYDELGTQYKVPIYCLSYPINIVKEENGRDSPAEYSEPVDGGTDIFLKLRISSTMTDVKLPVYSKDTVGQCKKKLQAAEGVDACCQRWFYSGKLLGDKVPIDECSIHQGYVVQVIVNTEHYNHDNSTSTAHAS” it was “failed”; in that of “MAKKTSSLLSRRRTRRPGEPPLDLGSIPWLGYALDFGKDAASFLTRMKEKHGDIFTILVGGRYVTVLLDPHSYDAVVWEPRTRLDFHAYAIFLMERIFDVQLPHYSPSDEKARMKLTLLHRELQALTEAMYTNLHAVLLGDATEAGSGWHEMGLLDFSYSFLLRAGYLTLYGIEALPRTHESQAQDRVHSADVFHTFRQLDRLLPKLARGSLSVGDKDHMCSVKSRLWKLLSPARLARRAHRSKWLESYLLHLEEMGVSEEMQARALVLQLWATQGNMGPAAFWLLLFLLKNPEALAAVRGELESILWQAEQPVSQTTTLPQKVLDSTPVLDSVLSESLRLTAAPFITREVVVDLAMPMADGREFNLRRGDRLLLFPFLSPQRDPEIYTDPEVFKYNRFLNPDGSEKKDFYKDGKRLKNYNMPWGAGHNHCLGRSYAVNSIKQFVFLVLVHLDLELINADVEIPEFDLSRYGFGLMQPEHDVPVRYRIRPHHHH”, “not failed”.
For the sequence “MRELLVFLHILSAATWIGAALWVPGDVKRTVALGRPFVEQLAARARPALKLDLYAGFAVLVTGVLLIGVDGGHPRTGILVGFAATLARLLVVGFASMPAWRRVEGAVASGDLAAATAPARRLAMLGGIGHALWAIALAGMVF”, the protein production result is reported as “failed”.
For the sequence “MATANEHLVAWLRDAHAMEEQAITMLTSQSSRLENYPELKTRIDRHLQETKDQAAMLERCLERLDGGTSSIKDISGKIVAFGQGLSGLFVSDEVVKGTLASYTFEHMEIASYRILIAAAEQAGDQETKRVCESILQQEIAMAEWLAQNAGEITRKFLERDQRDVTAKH”, the protein production entry is on record as “not failed”.
On to “MIQQRANFDWMLKELADGVPGVHQIVVLSADGLRIARYGGDPDAADRVAAACAGLQSLAGAVATEIPHSDGKMRMVIIEMDGAYFYMMAAGPNAYLAVLSDVTAEAGLMSNRMRDLVVRIGAHLTSPPRRNGQTV”, for which the protein production entry was “failed”.
With “MSYEKEFLKDFEDWVKTQIQVNQLAMATSQEVAQEDGDERAKDAFIRYESKLDAYEFLLGKFDNYKNGKAFHDIPDELFGARHY” the entry was “not failed”; with “MKSILEQLSSITVVVADTGDLDAIKKFQPRDATTNPSLILAAAKNPDYIKLIDQALESSRKSLPAGFSESELIKETIDQVSVFFGKEILNLISGRVSTEVDARLSFDTEATVTKARKLINHYKSFGINKERILIKIASTWEGIKAAEILEKEGIKCNLTLLFNFCQAVACANAKITLISPFVGRILDWHKAKTGKDNFAGCEDPGVISVTKIYNYFKEKGFKTEVMGASFRNIDEIKELAGCDLLTIAPKFLDELNREEGELIKKLDEDTQSQSSIDYKFDEKDFRLSMLEDQMASEKLSEGITGFSKAIEELEELLLKRLSEINNQKLISTT”, “failed”.
With “MDKKENTVVLFPQLSERYIDEGFLALKERKFEDALRCFEILRQYNAETEQTELASVICLLELKRMEEAKDKCEQLLKTGVVLFGDILETYVTILVQTNDYEGVIETVEKVLQTKDIMPDQKEKLAQLALFAEGMLNEGDASLVDSNFELDEFTNEIFGENFGQKLRAIQRLSLKDLDLALPVLKKFLIEEEQHPYLKTSILYKMIESQVEEEIEVEKFGNTIKVIPAFTGHNEEQSNNIIHKLSSRLEQNYPDIFEAMVTYWKELQISVFPFALLMDKEEIWSAVLERIGRKRFGLAIDEEELMAAYNIELEEFHIAYQWLLRVEREGYLPV” the entry was “failed”; with “EKAVLIGEKEADITFVTWGSQKGPILDVIEDLKEEGISANLLYLKMFSPFPTEFVKNVLSSANLVIDVESNYTAQAAQMIKLYTGIDIKNKILKYNGRHMTEDEILKSAKEILNKESLMVVLEDGS”, “failed”.
With “MSDFSNELHTQIQYSLIEKLSESERRYRELVDSLREIVFKCDRLGNLNFLNRAWTNTLGYGITDAIGSALSNFIDLDDQYLWSETLEKLQTGVEVCQKLRFYHQTGAIVWLELSAQPQSETEFSGSLINITDVYDELRLRKHAEGLLKQTNEELEARVEQRNIELIQANHDLKVTLDKLKYTQAQLVQTEKMSSLGQLVAGIAHEINNPVNFI” the entry was “failed”.
Turning to “MIGLSKSRGALSMENQKMPEYETIRAAVAGEKWAVEKVVDCYKDEIDRLSTVAVRQPDGSTKQEINEDMRQSITKKLIEALPQFPLEEMEKGNVR”, the protein production entry is recorded as “failed”.
